{"source": "patent US20240327538A1", "about": "(AMUNIX PHARMACEUTICALS, published 2024)", "binders": {"B1": {"name": "uTCE from AC3092 (bispecific antibody)", "chain": "LTGPATSGSETPGTQVQLVESGGGVVQPGRSLRLSCAASGRTFGIYVMGWVRQAPGKEREFVAAISWSGSNRLVSDSVKGRFTISRDNSKNTLYLQMNSLRAEDTAVYYCAASNRLYGRTWYDFNESDYWGQGTQVTVSSGGGGSGGGSELVVTQEPSLTVSPGGTVTLTCRSSNGAVTSSNYANWVQQKPGQAPRGLIGGTNKRAPGTPARFSGSLLGGKAALTLSGVQPEDEAVYYCALWYPNLWVFGGGTKLTVLGATPPETGAETESPGETTGGSAESEPPGEGEVQLLESGGGIVQPGGSLKLSCAASGFTFNTYAMNWVRQAPGKGLEWVARIRSKYNNYATYYADSVKDRFTISRDDSKNTVYLQMNNLKTEDTAVYYCVRHENFGNSYVSWFAHWGQGTLVTVSSGTAEAASASGEAGRSANHTPAG", "notes": "unmasked TCE released from this paTCE; also called AMX-500-P1; PSMA.5-CD3.23 uTCE"}}, "key": {"human PSMA": {"molecular_target": "T1, human PSMA (human, UniProt Q04609 44-750, limits assumed)", "T1 construct": "also called huPSMA", "T1 sequence (Q04609 44-750 limits assumed)": "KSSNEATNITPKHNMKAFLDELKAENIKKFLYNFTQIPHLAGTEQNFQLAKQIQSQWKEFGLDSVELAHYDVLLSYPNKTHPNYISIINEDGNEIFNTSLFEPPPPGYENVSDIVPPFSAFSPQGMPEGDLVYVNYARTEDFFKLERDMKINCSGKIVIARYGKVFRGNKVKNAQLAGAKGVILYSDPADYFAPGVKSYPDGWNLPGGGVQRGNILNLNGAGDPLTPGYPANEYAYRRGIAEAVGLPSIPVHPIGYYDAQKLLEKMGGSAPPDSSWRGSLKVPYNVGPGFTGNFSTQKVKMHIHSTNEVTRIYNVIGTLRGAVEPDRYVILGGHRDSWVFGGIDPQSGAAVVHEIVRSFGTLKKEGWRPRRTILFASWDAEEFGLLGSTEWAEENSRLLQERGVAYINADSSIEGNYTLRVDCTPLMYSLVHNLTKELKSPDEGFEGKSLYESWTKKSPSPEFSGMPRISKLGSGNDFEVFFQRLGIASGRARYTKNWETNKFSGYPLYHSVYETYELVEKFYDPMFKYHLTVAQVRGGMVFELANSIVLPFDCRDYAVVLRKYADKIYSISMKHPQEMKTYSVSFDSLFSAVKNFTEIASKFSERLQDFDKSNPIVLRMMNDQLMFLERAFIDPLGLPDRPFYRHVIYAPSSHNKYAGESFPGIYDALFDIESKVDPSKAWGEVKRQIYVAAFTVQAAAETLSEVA", "test": "Octet"}, "cynomolgus monkey PSMA": {"molecular_target": "T2, cynomolgus monkey PSMA (cynomolgus monkey, UniProt A0A2K5VNZ0 44-750)", "T2 construct": "also called cyPSMA; Cyno PSMA", "test": "Octet"}, "human PSMA-Fc [1]": {"molecular_target": "T3, human PSMA-Fc (human, UniProt Q04609 44-750, limits assumed)", "T3 construct": "also called Human PSMA-Fc fusions; not shown: Fc part", "T3 sequence (Q04609 44-750 limits assumed)": "as above", "test": "Octet, human PSMA-Fc", "procedure": "Binding affinity of select PSMA PTE variants was tested by Octet."}, "[2]": {"molecular_target": "T4, human PSMA on PSMA-transfected CHO cells (human, UniProt Q04609 1-750)", "T4 construct": "whole, on cells; also called Hu PSMA CHO", "T4 sequence (Q04609 whole entry)": "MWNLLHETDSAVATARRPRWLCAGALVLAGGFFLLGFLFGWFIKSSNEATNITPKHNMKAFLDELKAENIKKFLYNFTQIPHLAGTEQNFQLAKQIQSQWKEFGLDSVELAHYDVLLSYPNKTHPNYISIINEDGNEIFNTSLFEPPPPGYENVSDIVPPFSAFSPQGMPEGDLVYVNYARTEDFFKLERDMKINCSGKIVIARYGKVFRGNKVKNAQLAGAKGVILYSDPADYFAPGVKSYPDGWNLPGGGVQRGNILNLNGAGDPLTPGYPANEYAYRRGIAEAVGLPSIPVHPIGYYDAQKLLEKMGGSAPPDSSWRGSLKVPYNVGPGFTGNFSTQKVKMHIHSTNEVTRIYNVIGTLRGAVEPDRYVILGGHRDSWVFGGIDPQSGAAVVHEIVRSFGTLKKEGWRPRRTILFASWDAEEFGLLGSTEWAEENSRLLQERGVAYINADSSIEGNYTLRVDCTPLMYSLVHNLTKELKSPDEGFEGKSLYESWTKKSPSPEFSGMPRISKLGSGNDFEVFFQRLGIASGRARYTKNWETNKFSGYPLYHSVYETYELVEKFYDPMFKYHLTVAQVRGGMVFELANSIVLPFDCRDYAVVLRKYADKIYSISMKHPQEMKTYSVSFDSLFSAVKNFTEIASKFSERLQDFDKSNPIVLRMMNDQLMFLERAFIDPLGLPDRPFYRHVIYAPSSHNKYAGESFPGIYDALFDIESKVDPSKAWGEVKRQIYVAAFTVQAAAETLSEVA", "test": "binding to PSMA-transfected CHO cells, labeled secondary antibody to the anti-CD3 scFv", "procedure": "(§1) Surface binding was detected with a labeled secondary antibody specific for the anti-CD3 scFv.\n(§2) The binding affinities to both human and cyno PSMA and human and cyno CD3 epsilon were determined."}, "[3]": {"molecular_target": "T5, cyno PSMA on PSMA-transfected CHO cells (cynomolgus monkey, UniProt A0A2K5VNZ0 1-750)", "T5 construct": "whole, on cells; also called Cyno PSMA CHO", "test": "binding to PSMA-transfected CHO cells, labeled secondary antibody to the anti-CD3 scFv", "procedure": "as §1, §2"}, "human PSMA-Fc [4]": {"molecular_target": "T3, human PSMA-Fc", "test": "Octet"}, "human CD3 epsilon": {"molecular_target": "T6, human CD3 epsilon (human, UniProt P07766 23-126, limits assumed)", "T6 construct": "also called huCD3e", "T6 sequence (P07766 23-126 limits assumed)": "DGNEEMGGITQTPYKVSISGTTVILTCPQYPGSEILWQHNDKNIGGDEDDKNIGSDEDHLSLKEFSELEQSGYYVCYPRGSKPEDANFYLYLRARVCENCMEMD", "test": "Octet"}, "[5]": {"molecular_target": "T7, cynomolgus monkey CD3 epsilon (cynomolgus monkey, UniProt Q95LI5 22-117, limits assumed)", "T7 construct": "also called cyCD3e", "T7 sequence (looked up)": "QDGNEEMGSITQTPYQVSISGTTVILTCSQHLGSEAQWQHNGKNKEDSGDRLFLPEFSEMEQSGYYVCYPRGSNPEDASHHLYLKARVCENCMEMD", "test": "Octet"}, "human PSMA-Fc [6]": {"molecular_target": "T3, human PSMA-Fc", "test": "linker length / domain swap comparison"}}}
{"binder": "B1", "values": [{"measurement": "Kd", "setting": "human PSMA", "result": 4.5, "unit": "nM"}, {"measurement": "Kd", "setting": "cynomolgus monkey PSMA", "result": 41.1, "unit": "nM"}, {"measurement": "Kd", "setting": "human PSMA-Fc [1]", "result": 3.9, "unit": "nM"}, {"measurement": "koff", "setting": "human PSMA-Fc [1]", "result": 0.000273, "unit": "s⁻¹"}, {"measurement": "kon", "setting": "human PSMA-Fc [1]", "result": 72500, "unit": "M⁻¹ s⁻¹"}, {"measurement": "EC50", "setting": "[2]", "result": 9.06, "unit": "nM"}, {"measurement": "EC50", "setting": "[3]", "result": 28.8, "unit": "nM"}, {"measurement": "Kd", "setting": "human PSMA-Fc [4]", "result": 3.9, "unit": "nM"}, {"measurement": "Kd", "setting": "human CD3 epsilon", "result": 71.9, "unit": "nM"}, {"measurement": "Kd", "setting": "[5]", "result": 64.6, "unit": "nM"}, {"measurement": "Kd", "setting": "human PSMA-Fc [6]", "result": 3.9, "unit": "nM"}, {"measurement": "koff", "setting": "human PSMA-Fc [6]", "result": 0.00027, "unit": "s⁻¹"}, {"measurement": "kon", "setting": "human PSMA-Fc [6]", "result": 72000, "unit": "M⁻¹ s⁻¹"}]}
